To fix the notation:
B1: 36-F4-H1-D9 (antibody, V domains shown)
VH: EVKLLESGGGLVQPGGSLKLSCAASGFDFSRYWMIWVRQAPEKGLEWIGEINPDSSTINYTPSLKDKFIISRDNAKNTLYLQMSKVRSEDTALYYCARPYYRYDVGYFDVWGAGTTVTVSS
VL: DIVMTQAPKVLLVSAGDRVTISCKASQSVSNAVVWYQQKPGQSPKLLIFYASNRYTGVPDRFTGSGYGTDFTFSISTVQAEDLAVYFCQQDYSSPWTFGGGTKLEIK
notes: mouse monoclonal hybridoma antibody
B2: 7-B4-C1-C9 (antibody, V domains shown)
VH: EVQLQQSGTELVKPGASVKLSCKASGYTFTNYWMHWVKQRPGQGLEWIGEINPSNGRTNYNEKFKTKATLTVDKSSSTAYMQLSSLTSEDSAVYYCARSTYYGYDWYFDVWGAGTTVTVSS
VL: DIVLTQSPSSMYASLGERVTITCKASQDINSYLSWFQQKPGKSPKTLIYRANRLLDGVPSRFSGGGSGQDYSLTISSLEHEDMGIYYCLQCDEFPHTFGGGTKLEIK
notes: as for B1
B3: 2-H8-C9-F7-E2 (antibody, V domains shown)
VH: EVQLQQSGAELVKPGASVKLSCKASGYTFTNYWMHWVKQRPGQGLEWIGEINPSNGRTNYNEKFKSKATLTVDKSSSTAYMQLSSLTSEDSAVYYCARGSLTTVVPFDYWGQGTTLTVSS
VL: DIQMTQTPSSLSASLGGKVTITCKASQDINNYIAWYQHKPGKGPRLLIHYTSTLQPGIPSRFSGSGSGRDYSFSISNLEPEDIATYFCLQYDILLTFGGGTKLEK
notes: as for B1
B4: 4-E6-E4-B12 (antibody, V domains shown)
VH: B3 VH with Q5K, Q6E, N31S, Y32H, K65T, K74Q, S100N, T115A
VL: DIVMTQSPSSLSASLGGKVTITCKASQDINKFIAWYQHKPGKGPRLLIHFTSTLQPGIPSRFSGSGSGRDYSFSISNLEPEDIATYFCLQYDLLLTFGGGTKLEIK
notes: as for B1
B5: 44-F10-B6-D4 (antibody, V domains shown)
VH: EVHLVESGGGLVKPGGSLKLSCAASGFTFSSYAMSWVRQTPEKRLEWVATISSGGSYIYYPDSVKGRFTISRDNAKNTLYLQMSSLRSEDTAMYYCARQDWDGGDYYAMDYWGQGTSVTVSS
VL: DIVMTQSPSSLAVSAGEKVTMSCKSSQSVLYSSNQKNFLAWYQQKPGQSPKLLIYWASTRESGVPDRFTGSGSGTDFTLTISSVQAEDLAVYYCHQYLSSLTFGAGTKLELK
notes: as for B1
B6: 42-C8-A12-F3-D11 (antibody, V domains shown)
VH: EVHLVESGGDLVKPGGSLKLSCAASGFTFSSHGMSWVRQTPDKRLEWVATISSGGIYTYHPDSVKGRFSISRDNAKKTLYLQMSSLKSEDTGIYYCTRGQVGNWYFDVWGAGTTVTVSS
VL: DIVITQSPAIMSASPGEKVTINCSASSSVSYMHWFQQTPGTSPKLWIYSTSNLASGVPARFSGSGSGTFYSLTISRMEAEDAATYYCQQRSSYPLTFGAGTKLELK
notes: as for B1
B7: 25-G9-G4-C12 (antibody, V domains shown)
VH: B6 VH with H3Q, S52N, I56Y, H60Y, S69T, K77N, G92A, I93M, T97A, V101L
VL: B6 VL with I4M, N22T, T38K, F69S
notes: as for B1
B8: 48-E11-H7-B5 (antibody, V domains shown)
VH: EVQLVESGGGLVKPGGSLKLSCAASGFTFSSYAMSWVRQTPEKRLEWVASITIGDDTYYPDSVKGRFTISRDHAKNILYLQVSSLRSEDTAMYSCARGVNSYGSSYRYFDVWGAGTTVTVSS
VL: DIVMTQSHKFMSTSVGDRVSITCKASQDVSTAVAWYQQKPGQSPKLLIYWASTRHTGVPDRFTGSGSGTDYTLTISSVQAEDLALYYCQQHYSIPFTFGAGTKLEK
notes: as for B1

Numbering of substitutions follows the chain as printed.

T6 sequence (P59901 24-499): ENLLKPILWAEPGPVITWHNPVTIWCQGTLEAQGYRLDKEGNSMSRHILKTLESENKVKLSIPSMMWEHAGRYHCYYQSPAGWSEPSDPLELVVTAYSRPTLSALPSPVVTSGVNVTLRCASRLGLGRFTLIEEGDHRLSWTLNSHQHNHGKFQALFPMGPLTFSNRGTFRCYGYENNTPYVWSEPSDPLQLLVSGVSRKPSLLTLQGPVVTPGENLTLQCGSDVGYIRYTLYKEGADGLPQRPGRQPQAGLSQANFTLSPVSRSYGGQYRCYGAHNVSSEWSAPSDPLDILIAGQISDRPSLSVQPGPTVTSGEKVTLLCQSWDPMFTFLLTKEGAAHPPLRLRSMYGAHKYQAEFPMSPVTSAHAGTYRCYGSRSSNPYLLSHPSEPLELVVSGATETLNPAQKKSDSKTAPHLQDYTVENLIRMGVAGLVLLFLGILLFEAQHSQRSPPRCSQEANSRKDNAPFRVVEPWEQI
T2 sequence (Q8N149 24-483): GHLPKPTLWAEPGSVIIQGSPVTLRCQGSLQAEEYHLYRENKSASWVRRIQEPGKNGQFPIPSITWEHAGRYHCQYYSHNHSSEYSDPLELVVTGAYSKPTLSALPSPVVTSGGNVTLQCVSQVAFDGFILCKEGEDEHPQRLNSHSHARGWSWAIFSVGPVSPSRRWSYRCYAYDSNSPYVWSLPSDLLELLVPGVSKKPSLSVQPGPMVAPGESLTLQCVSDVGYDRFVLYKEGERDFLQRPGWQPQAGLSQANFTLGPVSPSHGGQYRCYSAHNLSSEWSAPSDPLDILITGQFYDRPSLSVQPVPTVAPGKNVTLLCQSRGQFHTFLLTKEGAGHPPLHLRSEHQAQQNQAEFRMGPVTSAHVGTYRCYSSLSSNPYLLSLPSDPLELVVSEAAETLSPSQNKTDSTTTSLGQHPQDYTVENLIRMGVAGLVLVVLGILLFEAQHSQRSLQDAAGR
T9 sequence (Q8N6C8 24-439): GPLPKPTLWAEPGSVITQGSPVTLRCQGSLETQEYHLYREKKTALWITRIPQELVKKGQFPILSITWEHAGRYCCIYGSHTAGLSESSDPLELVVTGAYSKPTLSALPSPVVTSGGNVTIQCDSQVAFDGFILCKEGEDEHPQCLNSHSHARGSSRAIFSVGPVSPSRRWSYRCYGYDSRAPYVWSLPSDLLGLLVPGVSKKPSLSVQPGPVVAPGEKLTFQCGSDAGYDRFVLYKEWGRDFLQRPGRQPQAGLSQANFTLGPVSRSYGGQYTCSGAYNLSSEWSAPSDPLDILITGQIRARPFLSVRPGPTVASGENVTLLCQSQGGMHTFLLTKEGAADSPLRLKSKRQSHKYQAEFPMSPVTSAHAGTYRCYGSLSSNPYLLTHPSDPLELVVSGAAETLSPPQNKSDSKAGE

In the first assay the target is T1, human LILRB1 (human, UniProt Q8NHL6 24-650).
T1 construct: whole, on cells; also called hLILRB1
T1 sequence (Q8NHL6 24-650): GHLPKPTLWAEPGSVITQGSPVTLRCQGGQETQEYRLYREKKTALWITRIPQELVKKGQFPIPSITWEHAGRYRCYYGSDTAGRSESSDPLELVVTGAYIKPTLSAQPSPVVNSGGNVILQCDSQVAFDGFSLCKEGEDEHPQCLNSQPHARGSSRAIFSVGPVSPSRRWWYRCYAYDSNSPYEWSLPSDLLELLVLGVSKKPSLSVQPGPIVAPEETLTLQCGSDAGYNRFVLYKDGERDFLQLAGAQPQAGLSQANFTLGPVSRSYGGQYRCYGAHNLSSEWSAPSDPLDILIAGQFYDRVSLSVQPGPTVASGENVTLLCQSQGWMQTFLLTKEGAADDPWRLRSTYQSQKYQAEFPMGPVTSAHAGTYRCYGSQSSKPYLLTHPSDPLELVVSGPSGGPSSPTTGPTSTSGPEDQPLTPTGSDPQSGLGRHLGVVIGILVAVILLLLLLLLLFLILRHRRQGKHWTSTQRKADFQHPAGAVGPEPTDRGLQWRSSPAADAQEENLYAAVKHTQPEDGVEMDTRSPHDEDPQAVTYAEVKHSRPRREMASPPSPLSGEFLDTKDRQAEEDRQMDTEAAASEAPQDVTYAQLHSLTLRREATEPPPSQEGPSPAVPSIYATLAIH
Briefly: FACS, 293F-hLILRB1 cells. A general note: In flow cytometry, cells or beads pass a laser one at a time.
The molecule B1 registered an MFI of 25.7 MFI.
On to B2, for which the MFI is 27.7 MFI.
The molecule B3 gave an MFI of 25.4 MFI.
The molecule B4 gave an MFI of 23.6 MFI.
The same measure, in the same setting: next, B5: 38.4 MFI.
With B6, the MFI worked out at 29.6 MFI.
B7: the MFI turned out to be 26 MFI.
In turn, B8 yielded an MFI of 27.3 MFI.

Another assay has as its target T2, human LILRA2 (human, UniProt Q8N149 24-483).
T2 construct: whole, on cells; also called hLILRA2
Briefly: FACS, 293F-hLILRA2 cells.
For the molecule B1, the MFI worked out at 16.5 MFI.
On the same count and under the same terms, next, B2: 21.6 MFI; B3: 19.7 MFI.
B4 returned an MFI of 21.9 MFI.
In turn, B5 had an MFI of 24.8 MFI.
The molecule B6 showed an MFI of 28.1 MFI.
In turn, B7 displayed an MFI of 21.7 MFI.
Molecule B8 came in with an MFI of 22.6 MFI.

For the next assay, the target named is T3, human LILRB5 (human, UniProt O75023 24-590).
T3 construct: whole, on cells; also called hLILRB5
T3 sequence (O75023 24-590): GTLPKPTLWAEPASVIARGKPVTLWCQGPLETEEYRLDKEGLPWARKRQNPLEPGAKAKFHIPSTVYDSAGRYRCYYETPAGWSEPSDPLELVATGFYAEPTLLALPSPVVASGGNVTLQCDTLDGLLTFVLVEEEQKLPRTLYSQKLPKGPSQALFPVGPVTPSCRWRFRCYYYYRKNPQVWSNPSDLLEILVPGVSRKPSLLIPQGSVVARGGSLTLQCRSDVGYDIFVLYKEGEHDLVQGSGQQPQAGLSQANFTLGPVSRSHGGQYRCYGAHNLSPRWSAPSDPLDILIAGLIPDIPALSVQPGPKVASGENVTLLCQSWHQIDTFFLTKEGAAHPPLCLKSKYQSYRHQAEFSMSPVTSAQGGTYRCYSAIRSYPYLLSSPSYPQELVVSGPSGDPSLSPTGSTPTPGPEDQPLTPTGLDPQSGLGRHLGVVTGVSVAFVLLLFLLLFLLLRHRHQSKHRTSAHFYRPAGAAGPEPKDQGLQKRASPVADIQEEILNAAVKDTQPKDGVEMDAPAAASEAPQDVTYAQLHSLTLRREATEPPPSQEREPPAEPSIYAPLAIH
Kind of assay: FACS, 293F-hLILRB5 cells.
On to B1, for which the MFI amounted to 17 MFI.
B2 showed an MFI of 17.8 MFI.
Molecule B3 came in with an MFI of 21.6 MFI.
Regarding B4, the MFI was 21.4 MFI.
For the molecule B5, the MFI was found to be 26.6 MFI.
The same measure, in the same setting: next, B6: 22.2 MFI; B7: 22.9 MFI; B8: 18.9 MFI.

The target of a further assay is T4, human LILRA5 (human, UniProt A6NI73 42-299).
T4 construct: whole, on cells; also called hLILRA5
T4 sequence (A6NI73 42-299): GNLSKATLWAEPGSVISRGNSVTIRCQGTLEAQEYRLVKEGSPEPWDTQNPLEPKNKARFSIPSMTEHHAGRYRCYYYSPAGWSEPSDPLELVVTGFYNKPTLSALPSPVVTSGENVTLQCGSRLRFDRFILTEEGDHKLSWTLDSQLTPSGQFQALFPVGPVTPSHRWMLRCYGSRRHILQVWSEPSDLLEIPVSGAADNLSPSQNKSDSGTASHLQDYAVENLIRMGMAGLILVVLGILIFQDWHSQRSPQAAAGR
Kind of assay: FACS, 293F-hLILRA5 cells.
B1 registered an MFI of 20.3 MFI.
B2: the MFI was determined as 28.2 MFI.
Molecule B3 had an MFI of 22.6 MFI.
The same measure, in the same setting: in the case of B4 it was 32.6 MFI; in that of B5, 26.8 MFI; in that of B6, 27.9 MFI.
In the case of B7, the MFI is 25.3 MFI.
B8 came in with an MFI of 359 MFI.

The target of the next assay is T5, human LILRA1 (human, UniProt O75019 17-489).
T5 construct: whole, on cells; also called hLILRA1
T5 sequence (O75019 17-489): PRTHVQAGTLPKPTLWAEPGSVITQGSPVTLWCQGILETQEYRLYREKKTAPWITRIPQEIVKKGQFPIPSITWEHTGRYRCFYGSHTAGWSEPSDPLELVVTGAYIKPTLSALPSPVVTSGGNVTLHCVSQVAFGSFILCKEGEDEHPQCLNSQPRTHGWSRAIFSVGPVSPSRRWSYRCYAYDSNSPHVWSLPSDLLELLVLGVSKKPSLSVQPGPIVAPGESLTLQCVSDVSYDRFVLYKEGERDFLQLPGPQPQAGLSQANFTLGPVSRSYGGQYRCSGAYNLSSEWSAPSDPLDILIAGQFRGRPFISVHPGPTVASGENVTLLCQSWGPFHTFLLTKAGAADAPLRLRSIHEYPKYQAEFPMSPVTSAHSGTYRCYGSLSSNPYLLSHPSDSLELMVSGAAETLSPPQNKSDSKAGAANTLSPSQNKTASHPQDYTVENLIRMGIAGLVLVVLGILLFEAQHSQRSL
Kind of assay: FACS, 293F-hLILRA1 cells.
As for B1, the MFI came to 22.1 MFI.
Still for that read-out and setting: next, B2: 27.5 MFI; B3: 22.6 MFI.
Same read-out and setting: next, B4: 24.4 MFI; B5: 25.6 MFI; B6: 27.3 MFI.
Consider B7, for which the MFI was 24.3 MFI.
On the same count and under the same terms, in the case of B8 it was 25.1 MFI.

Another assay addresses T6, human LILRA4 (human, UniProt P59901 24-499).
T6 construct: whole, on cells; also called hLILRA4
Briefly: FACS, 293F-hLILRA4 cells.
As for B1, the MFI amounted to 20.7 MFI.
As to B2, the MFI turned out to be 26.2 MFI.
Molecule B3 returned an MFI of 23 MFI.
For B4, the MFI was found to be 23.2 MFI.
With B5, the MFI was found to be 24.4 MFI.
The molecule B6 came in with an MFI of 27.2 MFI.
As for B7, the MFI stood at 22.7 MFI.
Molecule B8 displayed an MFI of 24.3 MFI.

Another assay deals with T7, human LILRB3 (human, UniProt O75022 24-631).
T7 construct: whole, on cells; also called hLILRB3
T7 sequence (O75022 24-631): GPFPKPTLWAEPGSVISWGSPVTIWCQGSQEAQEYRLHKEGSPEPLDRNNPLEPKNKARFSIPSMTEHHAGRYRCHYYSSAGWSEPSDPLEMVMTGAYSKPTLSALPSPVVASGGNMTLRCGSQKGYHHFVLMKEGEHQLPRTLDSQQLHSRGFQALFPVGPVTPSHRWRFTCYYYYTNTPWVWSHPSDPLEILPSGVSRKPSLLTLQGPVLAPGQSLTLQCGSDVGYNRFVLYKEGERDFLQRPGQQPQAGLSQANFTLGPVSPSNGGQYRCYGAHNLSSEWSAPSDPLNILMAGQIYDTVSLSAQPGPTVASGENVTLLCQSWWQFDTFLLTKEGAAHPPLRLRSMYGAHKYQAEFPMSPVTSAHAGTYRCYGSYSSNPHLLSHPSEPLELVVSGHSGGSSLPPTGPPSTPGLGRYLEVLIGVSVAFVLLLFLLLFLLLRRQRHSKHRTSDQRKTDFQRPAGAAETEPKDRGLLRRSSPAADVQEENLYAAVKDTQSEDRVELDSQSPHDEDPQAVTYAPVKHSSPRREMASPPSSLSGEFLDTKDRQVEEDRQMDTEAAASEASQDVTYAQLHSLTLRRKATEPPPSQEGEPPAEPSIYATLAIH
Briefly: FACS, 293F-hLILRB3 cells.
On to B1, for which the MFI is 23.5 MFI.
Take B2: the MFI was found to be 26.1 MFI.
Still for that read-out and setting: in the case of B3 it was 26.7 MFI; in that of B4, 27.1 MFI; in that of B5, 31.6 MFI.
Regarding B6, the MFI was found to be 602 MFI.
Same read-out and setting: next, B7: 25.2 MFI; B8: 26.7 MFI.

The target in another assay is T8, human LILRB4 (human, UniProt Q8NHJ6 22-448).
T8 construct: whole, on cells; also called hLILRB4
Kind of assay: FACS, 293F-hLILRB4 cells. As to the method:
The subcloning plates were screened by protein or cell-based ELISA, and the subclones with good binding ability were expanded to 24-wells for confirmation tests. The specificity and cross-reactivity of these subclones were confirmed with FACS analysis. […] Fluorescent dye-conjugated secondary antibody was used to detect the binding of the primary antibody with the cells. Median fluorescence intensity (MFI) was measured by FACS analysis. […]
As to B1, the MFI worked out at 898 MFI.
B2 gave an MFI of 3950 MFI.
Still for that read-out and setting: next, B3: 1710 MFI; B4: 1530 MFI; B5: 84.9 MFI.
Molecule B6 registered an MFI of 1290 MFI.
B7 showed an MFI of 383 MFI.
Same read-out and setting: next, B8: 2760 MFI.

A further assay concerns the target T9, human LILRA3 (human, UniProt Q8N6C8 24-439).
T9 construct: whole, on cells; also called hLILRA3
Kind of assay: FACS, 293F-hLILRA3 cells.
The molecule B1 displayed an MFI of 18.6 MFI.
With B2, the MFI stood at 25.2 MFI.
Molecule B3 came in with an MFI of 21.7 MFI.
Consider B4, for which the MFI came out at 23.7 MFI.
Regarding B5, the MFI turned out to be 22.5 MFI.
Molecule B6 came in with an MFI of 24.5 MFI.
The molecule B7 gave an MFI of 18.6 MFI.
On the same count and under the same terms, next, B8: 24.1 MFI.

The target in a further assay is T10, human LILRB2 (human, UniProt Q8N423 22-597).
T10 construct: whole, on cells; also called hLILRB2
T10 sequence (Q8N423 22-597): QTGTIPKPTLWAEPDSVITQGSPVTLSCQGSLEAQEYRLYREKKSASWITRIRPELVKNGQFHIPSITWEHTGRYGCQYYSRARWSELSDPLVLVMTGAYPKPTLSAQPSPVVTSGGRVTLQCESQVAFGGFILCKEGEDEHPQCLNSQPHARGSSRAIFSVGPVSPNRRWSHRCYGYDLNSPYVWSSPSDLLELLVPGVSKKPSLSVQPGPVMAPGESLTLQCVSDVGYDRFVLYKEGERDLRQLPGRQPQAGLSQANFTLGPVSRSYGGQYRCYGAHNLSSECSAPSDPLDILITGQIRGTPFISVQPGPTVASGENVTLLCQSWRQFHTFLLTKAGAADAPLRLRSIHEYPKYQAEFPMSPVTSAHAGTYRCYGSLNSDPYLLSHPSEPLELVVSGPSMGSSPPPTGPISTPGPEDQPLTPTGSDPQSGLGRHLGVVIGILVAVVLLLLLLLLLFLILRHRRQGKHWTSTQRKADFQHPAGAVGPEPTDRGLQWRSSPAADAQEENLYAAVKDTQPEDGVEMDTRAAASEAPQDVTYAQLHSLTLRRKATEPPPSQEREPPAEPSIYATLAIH
Kind of assay: FACS, 293F-hLILRB2 cells.
B1 displayed an MFI of 26.5 MFI.
B2: the MFI stood at 32.2 MFI.
As for B3, the MFI worked out at 28.8 MFI.
In the case of B4, the MFI was 58 MFI.
The same measure, in the same setting: in the case of B5 it was 38.2 MFI; in that of B6, 34.5 MFI.
B7 showed an MFI of 32.8 MFI.
B8: the MFI came to 45.8 MFI.

(Values after patent US20250361295A1 (ANTENGENE BIOLOGICS, published 2025).)
